Tests used:
[1] = molecular target: T1, human antithrombin (human, UniProt P01008 33-464); assay: cell-based or functional assay
[2] = molecular target: T1, human antithrombin; assay: cell-based or functional assay; remark: listed apart in the source
[3] = molecular target: T1, human antithrombin; assay: BLI (Octet-QK), sdAb coupled to sensor, antithrombin 12.5-50 ug/ml; apparent KD
Description: The interaction between sdAbs KB-AT-001, KB-AT-002, KB-AT-003 and KB-AT-006 versus human antithrombin was further analyzed via biolayer-interferometry analysis using Octet-QK equipment in order to determine apparent dissociation constants (KD,app). To this end, sdAbs KB-AT-001, KB-AT-002, KB-AT-003 and KB-AT-006 were diluted in 0.1 M Mes (pH 5.0) to a concentration of 200 microgram/ml for coupling to EDC/NHS-activated amine-reactive biosensors (Fort6bio, Menlo Park, Calif., USA). Sensors were rehydrated in 0.2 ml 0.1 M MES, pH 5.0 for 300 sec. Sensors were then activated via incubation with 0.1 ml 0.2 M EDC/0.095 M NHS mixture for 300 sec and subsequently incubated with 0.1 ml sdAb-solution for 600 sec. […] Following this association phase, sensors were transferred to wells containing PBS-T and incubated for 900 sec, allowing dissociation of the antithrombin-sdAb complex. Obtained data were subsequently analyzed using Octet-QK data analysis software (Origin vs 4) to estimate KD,app.

[4] = molecular target: T2, rabbit antithrombin (rabbit); assay: ELISA, sdAb coated, plasma 1/4, bound antithrombin probed with polyclonal anti-antithrombin; grade by OD
T2 construct: Native protein in plasma diluted 1/4; also called rabbit AT; antithrombin in rabbit plasma
Description: (§1) sdAbs KB-AT-001, -002. -003, -004, -005, -006, and -007 were immobilized (10 microgram/ml) in 10 mM NaHCO₃, 50 mM Na2CO3 (pH 9.5) in a volume of 50 microliter in half-well microtiter plates (Greiner Bio-One, Les Ulis, France) for 16 h at 4° C. As a positive control, polyclonal anti-antithrombin antibodies (MATIII-EIA kit, Affinity biologicals, Ancaster Canada) were immobilized in a similar fashion. As a negative control, the anti-von Willebrand sdAb KB-VWF-006 was immobilized. After washing the wells three times with 100 microliter/well using Tris-buffered saline (pH 7.6) supplemented with 0.1% Tween-20 (TBS-T), wells were blocked with 100 microliter/well of TBS-T supplemented with 3% bovine serum albumin (BSA) for 30 min at 37° C. Wells were washed as described above, and subsequently the following plasma preparations (diluted ¼ in TBS-T/3% BSA, 100 microliter per well, 2 hours at 37° C.) were added to each of the immobilized sdAbs and both types of control wells: rabbit plasma, canine plasma, simian plasma, bovine plasma, porcine plasma, rat plasma, murine plasma and human plasma.
(§2) Wells were then washed three times with 100 microliter/well using TBS-T. Bound antithrombin was probed with peroxidase-labeled polyclonal anti-antithrombin antibodies (MATIII-EIA kit, Affinity biologicals, Ancaster Canada; diluted 1/100) for 2 hours at 37° C. with 50 microliter per well. Wells were then washed three times with 100 microliter/well using TBS-T. Residual peroxidase activity was detected by measuring peroxidase-mediated hydrolysis of 3,3′,5,5′-tetramethylbenzidine.
(§3) Negative binding (−) was defined as optical density (OD) being ≤0.1, moderate positive binding (+) was defined as OD being >0.1 and <0.5, strongly positive binding (++) was defined as OD being ≥0.5. […] All plasma preparations had moderate or strongly positive binding to the positive control (polyclonal anti-antithrombin antibodies).

[5] = molecular target: T3, canine antithrombin (canine); assay: as above
T3 construct: Native protein in plasma diluted 1/4; also called canine AT; antithrombin in canine plasma
Description: as §1, §2, §3

[6] = molecular target: T4, simian antithrombin (simian); assay: as above
T4 construct: Native protein in plasma diluted 1/4; also called simian AT; antithrombin in simian plasma
Description: as §1, §2, §3

[7] = molecular target: T5, bovine antithrombin (bovine, UniProt P41361 33-465); assay: as above
T5 construct: Native protein in plasma diluted 1/4; also called bovine AT; antithrombin in bovine plasma
Description: as §1, §2, §3

[8] = molecular target: T6, porcine antithrombin (porcine); assay: as above
T6 construct: Native protein in plasma diluted 1/4; also called porcine AT; antithrombin in porcine plasma
Description: as §1, §2, §3

[9] = molecular target: T7, rat antithrombin (rat, UniProt Q8VHJ4); assay: as above
T7 construct: Native protein in plasma diluted 1/4; also called rat AT; antithrombin in rat plasma
Description: as §1, §2, §3

[10] = molecular target: T1, human antithrombin; assay: as above
Description: as §1, §2, §3

[11] = molecular target: T8, murine antithrombin (mouse, UniProt P32261 33-465); assay: as above
T8 construct: also called mouse antithrombin; murine AT
Description: as §1, §2, §3

[12] = molecular target: T1, human antithrombin; assay: ELISA: sdAb coated on the plate, antithrombin added in solution; the concentration is that of antithrombin
Description: (§4) sdAbs recognizing antithrombin (KB-AT-001, -002, -003, -004, -005, -006, and -007) were immobilized (5 microgram/ml) in 10 mM NaHCO₃, 50 mM Na2CO3 (pH 9.5) in a volume of 50 microliter in half-well microtiter plates (Greiner Bio-One, Les Ulis, France) for 16 h at 4° C. After washing the wells three times with 100 microliter/well using Tris-buffered saline (pH 7.6) supplemented with 0.1% Tween-20 (TBS-T), wells were blocked with 100 microliter/well of TBS-T supplemented with 5% skimmed milk for 30 min at 37° C. Wells were washed as described above, and subsequently different concentrations of purified human antithrombin or murine antithrombin (0-5 micromolar diluted in Tris-buffered saline (pH 7.6) supplemented with 5% skimmed milk; 50 microliter/well) were added to each of the immobilized sdAbs and incubated for 2 hours. Wells were then washed three times with 100 microliter/well using TBS-T. Bound antithrombin was probed with peroxidase-labeled polyclonal rabbit anti-antithrombin antibodies (Diagnostica Stago, Asnièrs-sur-Seine, France; Dilution 1/100) for 1 hour at 37° C. with 50 microliter per well. Wells were then washed three times with 100 microliter/well using TBS-T. Residual peroxidase activity was detected by measuring peroxidase-mediated hydrolysis of 3,3′,5,5′-tetramethylbenzidine. OD-values were plotted against antithrombin concentrations (FIG. 1).

[13] = molecular target: T8, murine antithrombin; assay: as above
Description: as §4

[14] = molecular target: T5, bovine antithrombin; assay: ELISA, sdAb coated, plasma 1/4, bound antithrombin probed with polyclonal anti-antithrombin
Description: as §1, §2, §3

[15] = molecular target: T2, rabbit antithrombin; assay: as above
Description: as §1, §2, §3

[16] = molecular target: T3, canine antithrombin; assay: as above
Description: as §1, §2, §3

[17] = molecular target: T6, porcine antithrombin; assay: as above
Description: as §1, §2, §3

[18] = molecular target: T7, rat antithrombin; assay: as above
Description: as §1, §2, §3

T5 sequence (P41361 33-465): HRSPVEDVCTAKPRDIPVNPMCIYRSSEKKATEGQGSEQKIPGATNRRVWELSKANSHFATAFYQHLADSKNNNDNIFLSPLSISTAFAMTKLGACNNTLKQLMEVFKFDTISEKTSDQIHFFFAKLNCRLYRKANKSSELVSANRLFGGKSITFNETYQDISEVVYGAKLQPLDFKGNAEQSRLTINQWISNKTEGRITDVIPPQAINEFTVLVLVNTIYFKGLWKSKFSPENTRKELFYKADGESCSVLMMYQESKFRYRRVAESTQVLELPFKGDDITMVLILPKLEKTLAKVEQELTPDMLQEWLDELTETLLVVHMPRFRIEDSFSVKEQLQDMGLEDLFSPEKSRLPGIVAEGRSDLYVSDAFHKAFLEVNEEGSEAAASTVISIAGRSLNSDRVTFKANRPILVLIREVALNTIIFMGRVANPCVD
T8 sequence (P32261 33-465 limits assumed): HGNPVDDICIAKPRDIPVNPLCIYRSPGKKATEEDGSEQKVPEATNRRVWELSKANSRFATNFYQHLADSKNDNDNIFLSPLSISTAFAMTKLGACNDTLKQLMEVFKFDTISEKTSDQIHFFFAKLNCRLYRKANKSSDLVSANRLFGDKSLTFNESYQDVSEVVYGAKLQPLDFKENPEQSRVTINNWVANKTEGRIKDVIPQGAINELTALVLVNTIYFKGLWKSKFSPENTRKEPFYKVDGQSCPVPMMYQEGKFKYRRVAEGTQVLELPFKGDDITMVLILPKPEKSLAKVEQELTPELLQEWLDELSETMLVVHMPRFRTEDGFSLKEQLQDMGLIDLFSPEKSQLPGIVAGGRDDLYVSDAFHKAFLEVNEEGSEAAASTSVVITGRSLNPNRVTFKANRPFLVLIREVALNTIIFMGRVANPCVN
T1 sequence (P01008 33-464 limits assumed): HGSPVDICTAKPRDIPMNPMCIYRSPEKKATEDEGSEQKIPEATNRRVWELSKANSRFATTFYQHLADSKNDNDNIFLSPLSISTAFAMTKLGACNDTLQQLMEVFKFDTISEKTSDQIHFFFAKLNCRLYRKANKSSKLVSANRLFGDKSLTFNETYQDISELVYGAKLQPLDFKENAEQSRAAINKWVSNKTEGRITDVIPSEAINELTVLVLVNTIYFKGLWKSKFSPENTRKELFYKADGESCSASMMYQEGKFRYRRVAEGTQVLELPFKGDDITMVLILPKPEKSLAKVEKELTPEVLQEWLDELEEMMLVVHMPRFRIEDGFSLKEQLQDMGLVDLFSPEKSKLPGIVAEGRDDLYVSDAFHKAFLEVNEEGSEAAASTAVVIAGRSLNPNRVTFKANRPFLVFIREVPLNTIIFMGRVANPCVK

Binder | percentage of neutralization of antithrombin-mediated factor Xa inhibition, with LMW-heparin [1] | percentage of neutralization of antithrombin-mediated thrombin inhibition, with unfractionated heparin [1] | % antithrombin neutralization (thrombin amidolytic activity on S-2238, no heparin) [2] | Kd [3] | OD [4] | OD [5] | OD [6] | OD [7] | OD [8] | OD [9] | OD [10] | OD [11] | EC50 (read off the curve) [12] | EC50 (read off the curve) [13] | OD [14] | OD [15] | OD [16] | OD [17] | OD [18]
KB-AT-002 (VHH, Monovalent anti-antithrombin single-domain antibody; also called sdAb KB-AT-002) VHH: QVQLVQSGGGLVQAGGSLRLSCAASGRTFNNNGMGWFRQAPGKEREFVAAISWSGGSTYYADSVKGRYIMSRDNAKNTVYLQMNSLKPEDTAVYYCAARTRYNSGLFSRNYDYWGQGTQVTVSS | < 15% | < 5% | 65% | 4 nM | ≥ 0.5 od | ≥ 0.5 od | ≥ 0.5 od | ≥ 0.5 od | ≥ 0.5 od | ≥ 0.5 od | ≥ 0.5 od | ≥ 0.5 od | ~600 nM | ~500 nM | – | – | – | – | –
KB-AT-006 (VHH, Monovalent anti-antithrombin single-domain antibody; also called sdAb KB-AT-006) VHH: QVQLQQSGGGLVQAGGSLRLSCAASGRTFSNNGMGWFRQAPGKEREFVAAISWSSGSTYYADSVKGRYTISRDNAKNTVYLQMNSLKPEDTAVYYCAARTRYNSGYFTRNYDYWGQGTQVTVSS | < 15% | < 5% | 58% | 22 nM | ≥ 0.5 od | 0.1 to 0.5 od | ≥ 0.5 od | – | 0.1 to 0.5 od | 0.1 to 0.5 od | 0.1 to 0.5 od | 0.1 to 0.5 od | ~500 nM | – | ≤ 0.1 od | – | – | – | –
KB-AT-005 (VHH, Monovalent anti-antithrombin single-domain antibody; also called sdAb KB-AT-005) VHH: EVQLVESGGGLVQPGGSLRLSCEASGRDFNDAALGWSRQVPGKARETVAMITSGGVRNYAETVKDRFTISRDNAKNTVYLDMNNLQPDDTGVYYCKADSFKGDYDTSWYLYWGQGTQVTVSS | < 15% | < 5% | 57% | – | – | – | 0.1 to 0.5 od | – | – | – | 0.1 to 0.5 od | 0.1 to 0.5 od | – | ~400 nM | ≤ 0.1 od | ≤ 0.1 od | ≤ 0.1 od | ≤ 0.1 od | ≤ 0.1 od
KB-AT-001 (VHH, Monovalent anti-antithrombin single-domain antibody; also called sdAb KB-AT-001) VHH: QVQLQQSGGDLAQRGGSLRLSCAASGRTFRNYVMGWFRQAPGKDPEFIAGINRSGAITYYGDSVKGRFTISRDNAKNTVSLQMNSLEPEDTAVYYCAAGETTWSIRRDDYDYWGQGTQVTVSS | < 15% | < 5% | 62% | 14 nM | 0.1 to 0.5 od | – | ≥ 0.5 od | – | – | 0.1 to 0.5 od | 0.1 to 0.5 od | ≥ 0.5 od | ~700 nM | ~600 nM | ≤ 0.1 od | – | ≤ 0.1 od | ≤ 0.1 od | –
KB-AT-007 (VHH, Monovalent anti-antithrombin single-domain antibody; same CDRs as KB-AT-001; also called sdAb KB-AT-007) VHH: QVQLQQSGGGLVQAGGSLRLSCAASGRTFRNYVMGWFRQAPGKDPEFIAGINRSGAITYYGDSVKGRFTISRDNAKNTVSLQMNSLEPEDTAVYYCAAGETTWSIRRDDYDYWGQGTQVTVSS | < 15% | < 5% | 61% | – | – | – | ≥ 0.5 od | – | – | – | 0.1 to 0.5 od | 0.1 to 0.5 od | – | – | ≤ 0.1 od | ≤ 0.1 od | ≤ 0.1 od | ≤ 0.1 od | ≤ 0.1 od
KB-AT-004 (VHH, Monovalent anti-antithrombin single-domain antibody; also called sdAb KB-AT-004) VHH: VQLQQSGGGLVQPGGSLRLSCAASAMTFSIRAWAWYRQAPGKQRELVASIGTGDITNYADSVKGRFTISRDNAKNTFYLQMNSLKPEDTAVYYCNGYRSTYAWGQGTQVTVSS | < 15% | < 5% | 55% | – | – | 0.1 to 0.5 od | 0.1 to 0.5 od | – | 0.1 to 0.5 od | 0.1 to 0.5 od | 0.1 to 0.5 od | ≥ 0.5 od | – | – | ≤ 0.1 od | ≤ 0.1 od | – | – | –

From patent US20190100602A1 (INSERM INSTITUT NATIONAL DE LA SANT ET DE LA RECHERCHE M …, published 2019)
